Target: GHSR with a TAG amber codon at F71^1.60 and a single reactive cysteine at position 255^6.27, doubly labelled (UniProt Q92847)
UniProt Q92847, sequence (Q92847 1-70): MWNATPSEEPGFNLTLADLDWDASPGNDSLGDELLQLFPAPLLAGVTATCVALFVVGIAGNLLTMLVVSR

proximity ratio change from the intramolecular FRET between fluorophores in TM1 and TM6 of GHSR, in lipid nanodiscs with D2R, 10 µM peptide | proximity ratio change from the intramolecular FRET between fluorophores in TM1 and TM6 of GHSR, in lipid nanodiscs with D2R | Substance
11.9 |  | LEAP2 (1–12) (peptide)
 | 13.3 | LEAP2 (1–14) (peptide)
